The domain aggregation screens of Martell et al. (2025)

experiment: soluble fraction after stress (log2 fold change); higher = more stays soluble; pooled small domains, quantitative proteomics; conditions: stress: pH 4
Outline: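 Aggregation propensity here comes from the fold change in the soluble amount of each small protein domain after acid stress, measured in pooled custom libraries by high-throughput quantitative proteomics. The acid stress was pH 4. On the log2 scale, higher values mean more of the domain stayed soluble.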

Row | Sequence | soluble fraction (log2)
1 | HMIPEILNGYTKWGDDEPFEDHAGPFYMKMMPSTGRHLSAFIPEQRHMNGGGFLHGGMLMSFADYALFVI | -0.491
2 | HMIPEKEISYMMPDGFMPKELKIIHITESGRKQIYSAAHKPLDLVNVKAPFVPNTKVQIYINDVPIEELKI | -0.739
3 | HMIPKDKQAWIALTYIYGVGRTTSMEILKKAQVGEEIRMKDLTEEEVTRIRNIIDKEYEVEGDLRRN | -0.762
4 | HMIPNEKEAARWDALTAEHTAKLNALEGDALDKVGSHEDVSIKRAGVGDAAFREKILSRTHPDDLERALST | 0.3
5 | HMIQHFARKRRQLELAVQRLSGRMAETNGQVTADMQRLIQQVKALVAELSHVFSRAYLRRVLGGVALVIGS | -0.145
6 | HMIQLTDAEFNELVTYIKKNYGINLIKKRLLIEARMYSVLAKHGFTSFTEYINLIKRDPAELNTMLNKLTT | 0.126
7 | HMIQMRVKVPKNIAGGSLMGAHHFVKSALARTNPGGSTSNYKIQATDGTPLTLGDLTARQYDEVLIISG | -0.617
8 | HMIQTKKVTFTVEPTVNFEKINISGIEFKINSGSSITAIYEKNSHNFDEVLDFLKQKGVKILDIVTED | -0.824
9 | HMIRILIVDDSAFMRKLLSDVFEEDKNFVVVDTARNGQDAVEKVKRLKPDLVTMDVEMPVMDGLTAVEIIM | -1.12
10 | HMIRSNLAEQAYAQLKALIHDFQLLPGDRFSENEMGTRLGVSRTPVREALFRLRNEGFLEVESKAGWYVK | -1.73
11 | HMISAADLQTYLKGMDYPAGREDLVAHAQRNNAPESVITILQGFSDRTYRSAAEVSEEFGRE | -0.371
12 | HMISADSSKVDTLVQVYSNMKPIQAAQVFEKMDEDLVIEILSRMKKKNAADILNLIKTEKAQVFAEKYA | -0.0774
13 | HMISAEPVGEDLFKVAFPFLGGSTVFEKTIEQFIEEHPSKRIDHIYTVPNPLRLKKADALIFYIITEEK | -1.12
14 | HMISASDLQTYLKGMDYPARKEDLIVHAQRNNAPESVIAAIRQFSDRTYQSAADVSEEFGKI | -0.468
15 | HMISDEELLVSTKKEIMSLATVLTKTDKKDDAIAIMKEYDPAANPNRIKDVNKAKELLERLQKLG | -0.104
16 | HMISDISEIEAIIVEVLKVFPNQLQEYLDGKEKILSFFVGQVMQRTKGRANPSLVNEILKEKIKN | -0.417
17 | HMISEAEGTILQLLKEADGTLPFTYKSDADEIKKVFGMSKKNFKRTLTELIEAKKIQLLDDAIVL | -0.0222
18 | HMISEKEIKIIEDILARWNGKLTWDDFTSKVAKKLNLPSLSKFTLMGYPEIKQAFLTRKQTLK | -0.382
19 | HMISENFVEAKILLTEDNRPKSLEILKDIIRQHDKVYSPLSLFLILDEDLEENKEIILEYFDLVLS | -1.38
20 | HMISESLLDEIPGLGETRRNSLLREFGSVAMIRKASAEEIASRVRGIGAEFAAAIHDFLQTH | 0.0801
21 | HMISFHEYLTQLLDEKGLTKAQVITDSNIQKNYGYQIFDGSKTPSRDKVIAIALAMQLTLDEANRLLHLSN | -0.618
22 | HMISFTDLEHIEKMIENVLYTKTPLNLPPTDAKIRKIEHQIARRYGLNSESFGDEPRRFVVVYPNEERE | 0.0997
23 | HMISKAQLFSEEELTELYRATGYQLENDPEIHREQFEALQAVRAKIEYAVPDVQEKLEQEQNLGQQ | -1
24 | HMISKRFQVDEENSNNRVDIFLANNLDSISRGIVQQLILDGKVLVNGETVKRNHLLKTNDEVDISFEI | 0.0466
25 | HMISRDPYDAGAIKRHFSASGLFSSKELAHYLGKSVSTAKNVLSDLQQQGIVEMVGQGPATKYRFI | 0.285

Row | Sequence | soluble fraction (log2)
26 | HMISSRDAAVIGLVENIQRAQLNAIDESSGFKHLMETYNLESKEIALLVGKSRSYVSNSLRLSK | -0.235
27 | HMISTVFYVDVKGEVHHPGVYQMKAENRVKDLIEAAGGFTPLADDQKLNLAQLLEDQMVIVVPKKGEEV | -0.221
28 | HMISVTNRTGTGLNDVKVEVFPVGRQMVFSATVFRVESEATNRFSLGELRGSDGTPFNQRVHRPESI | -0.07
29 | HMITAEQENILFEKASDDISNNIINKGIWTKAYSQAGGDESKQKAIYIDLLVNYYKMLIKAGEEFEDI | -2.05
30 | HMITALLPGTVLIREFDGRDYHVTVATDGRFEMDGHKYPSLSAVAKHITGTQWSGPAFFGLN | -0.0323
31 | HMITASNYFIEVERIGIETLPETLKKGHDLVVKSTSNGTNWANYQTSEGIKKVIDLYFQKLNEYANTV | -1.57
32 | HMITDSSEIEAMVDALVKENPGQAEQYKDGNMKVAGWFIGQIMKVSKGKANPQLVGDLLKKKLG | ≥ 0.43
33 | HMITERVPVPDLTGMPLMEAIKTLNSSKLQYQVVGSVIEGDENRIIDQTPKPDIMVSEKSIVLLYLETYRG | -0.338
34 | HMITIDADTGKRVYTRKEVADLVGASTQSIRLWEDAGAIPASVRDEGGYRYWYEEDLEAIKAYAS | -0.411
35 | HMITKAIELAEEAEKETVWLGVWEHNHPAQKFYQSLGFVKTDEHDFYMGNERHTDYTMTKQLK | -0.958
36 | HMITLKKRRQEAILEIIEKYDLSTQDELLQKLKDSGFDATQATVSRDIKELRLVKTMGANGQYKYAVT | -0.735
37 | HMITMADKIDTALSEMAANNEKINVSQVAKRLGISNSAIYKFNPEKIPDIQTAQKRQKHKAEAIAVGTEN | 0.0504
38 | HMITMWYYKKDGNIIGPASARKIASMRELGIITDSTPVSRKRNAKNWETFGGLSEKINLESSQWD | 0.0852
39 | HMITNEDINIKKLLVVMKDTPLSANEIMDKLNIKSKETLRNMYLDPAIKKGLINLTIPDKPTSKNQKYYK | 0.22
40 | HMITNESEIERIVEAIISKNPESIAQYRSGITKVLGFLVGQVMKETKGRANPALVNRIIISKME | 0.242
41 | HMITSELALVKLVVKGANRVEALRVAETFRARALDVTLSSFVFELTGKPSKLDAFIGLMRSLGDTEILKR | -1.02
42 | HMIVEIVPSALHGERVDRIVAFILDVSRSVASGLVERGAVHVDGSVETSGKVRLVEGQEVSVDPSQVPG | -0.528
43 | HMIVNEQEQTFIKAMRDDDFNTILELKMKGYQPSDNVLKSLQPDISSTTFIAAAKIFQMERMLK | ≥ 0.43
44 | HMIVSVPNVRGMGESKAAAALQNRGLLVSIDYESSTSASQGEVIRQSISPGTEVTKGSSITIIIAVSPN | -0.0228
45 | HMIVVMQPGATKEQVQAVIDRVAEFGFQTKLAPGAERMVIGVVGSPLPDTLKEALERLPGVEEVIRVSKR | -0.0989
46 | HMIVVTSPQVTDERIAEIVAFIEKHGVQAHVSRGTDRTVIGIIGKADPVLAEHLRSMQGVENVIKIS | -0.126
47 | HMIYKLTLLRDLPEAKAGFDFYLRGGLASHDGEEWFSWVTREPIYARLYWLYVEKREEWVLVEETDI | -2.47
48 | HMIYMIDPNDEIAVKLDEIYQRYLNRTIDPEGLIFFYNQIRNAQMGYSDVEKRILESPEYVSIPK | -1.23
49 | HMIYQNVINLLKNRLNSSIYNIGDLLPSEKELAEHYDVSRNTLRKALKTLEEEGMIERRHGSGTYLRNK | 0.0262
50 | HMIYWGTMVDKIYEVLSLAGKPLSLMEIYQQVKVFFPNSTKSSIEASMRLDARHRFKYDVEGHVYSLVD | -0.368

Row | Sequence | soluble fraction (log2)
51 | HMIYYTEEELVKRYIDFSNYLGKKEGASDVDFKKYAVEFGIPSRDHYNRKFITLFNLKIKAGYKPIRH | -1.13
52 | HMKAAQDQDQAATLLQKATGVNQDQAKLAATVLFKEQSVTPIRQAIASGDYYQAYQDAKSLQQQ | 0.22
53 | HMKADIEQVQRAFDTLDPKNQQLVLDAMKAATAELDPNSDQFKTNTEFINDNQKALDRHAKAS | 0.0627
54 | HMKAGAVFNEGDVLYPKIGGLKLMAAAGEGGKVVATLAKTDEMIYMGEEQSGFVKVESGSGSGWVKKILVA | 0.202
55 | HMKAGEDAVQKAVLEAVAESAAAVADYKAGSERALNFIVGKVMKKTRGKASAAEVHRLVREEVDR | 0.079
56 | HMKAILHQESRSGFANATVIGGLDKFLDTNWNQLSKYIKKIETPYSDRSLEDRKIWISTILGILSTEI | 0.136
57 | HMKALHEEIAEKIQEQILRSNLAPGDKLDTELELAARYGVSRSTIRQALIQLESAGLIDRLHGRGTFVAD | 0.029
58 | HMKAPDSQYKPLTDFQTDASFQKLDAYLRNRYPAMLANAVVYDVLRTPDAISYRVNYQVDNKMITINAAVT | 0.157
59 | HMKAPLTFVIEGKEYEAFDQYKTGAELKQLAGIPLDTELFLSISKPYQDELIENEKQVNLARPETEYFFVK | -0.494
60 | HMKAQTVPQFVGMTMTEAEEKASELGITLIEGAVVDSVEPKDTILTQDVDEGTEITGKMEIMVTISS | -0.352
61 | HMKARLRRVFQIYYGDAYSIMKALKETFPLQTIVHEPRTNSIVVDTPDEETATKIGDVVSAL | -0.563
62 | HMKDANIQIGKRLREARLNMNLEKSEIADVLGVTVEHYRKLEAGVMGISVDKVLTLYHKYGIDPTYLITG | -0.712
63 | HMKDEGSLKVIGQMVVIGIPQSEAKRFANTYTVAQIRAALQYTQKRSEDKNASKLENVAAYFRQALVRNWG | ≥ 0.43
64 | HMKDHKSKWMAKTELDSIAKNLSKKHAISLDYEEDGTRFYAGGQSPLGIGRLFTVFVAPRNGHWSDQLR | -0.0435
65 | HMKDLIGEAKAKELALGHAKLSASDVTFIHVELDWENGRRVYDVEFYSGAKEYDYEIDAKTGEIVSFDY | 0.00222
66 | HMKDLQHLVGEKGTTVTPLRPSGIALIKGSRYDVVSEGSFIQQGVAVEVIKVEGRRVVVSPLQED | -0.0748
67 | HMKDLSMPDVMGSSLNDAKKALTELGIMDITVRYVESGSSEGSIVGMEPPAGSKFAADGKVVLQVSSGS | 0.0083
68 | HMKDMKISTQNILKELATNYPDQTAFRKNVIESTAKSMGYTGKDFYPMLTAETRVKIGTYDLSALLQTV | -0.197
69 | HMKDPSFELMSVAESFYRSGNVDHAVYALEKYLEVYADGDYTDRAHDLLSQARKGLTYPHGYPPLQI | -1.33
70 | HMKDRDISNAVLNILSKDSDHNYNYKQIASVLGVKDPFVRKRIVSVLAQLTKNGQLEEISRGKYQIKN | -0.694
71 | HMKDRNISSSVLEILSKDPDHTYNYKQIAALLGVKDAFIRKRIVTLLAQLAKDGHLDEISRGKYQIK | -0.0199
72 | HMKDVVAPMSGRVVRLMVAAGDEVVKRQALVVVEAMKMENVLTAPKEGRIKKVPVREGMTVEVGQTLVSFE | -0.274
73 | HMKDYKSALQELIQSGDKRVISYHTLKETGPSHNREFEAAVKLDGNIILGVGKGKTKKEAEQNAAHEALKK | 0.165
74 | HMKDYKSSLQERVQAVGGGQLIYRVNREEGPDHSKTFYMDLFLGDRLIGTGSGRNKKQAEQQAAKEAIERG | 0.0469
75 | HMKDYKTIFQELIQKKHKTSPIYKSYEYNDMFKAEVYVNDKSFADGIGKSKKEAETDAAKKALEKIEMA | 0.0809
